From patent US20150030595A1 (ANTIBODY AND RECEPTOR THERAPEUTICS, published 2015)
Where two headings read alike, the source gives them in different places.

T1: ACVR2B-Fc fusion protein (human, UniProt Q13705 19-137)
T1 construct: also called water-soluble ACVR2B
T1 sequence: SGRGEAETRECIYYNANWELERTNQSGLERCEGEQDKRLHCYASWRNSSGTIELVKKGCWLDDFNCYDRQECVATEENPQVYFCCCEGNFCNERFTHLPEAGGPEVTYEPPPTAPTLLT

T2: C-terminally active myostatin (R&D systems) (UniProt O14793 267-375, limits assumed)
T2 construct: mature
T2 sequence (looked up): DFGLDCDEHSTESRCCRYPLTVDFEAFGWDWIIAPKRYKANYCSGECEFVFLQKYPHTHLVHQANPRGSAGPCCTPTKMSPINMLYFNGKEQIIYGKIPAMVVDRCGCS


Key:
ACVR2B-Fc fusion protein [1] = molecular target: T1, ACVR2B-Fc fusion protein; assay: SPR (ProteOn XPR36), ACVR2B-Fc coated on the chip, Fc channel as reference
Description: This experiment was performed using a ProteOn XPR36 instrument (Bio-Rad). First, a sensor chip (GLC) was activated by reacting 0.1 M EDC and 0.025 M sulfo-NHS (Bio-Rad) for 60 seconds. […] The coating procedure was completed by allowing 1 M ethanolamine-HCl) (pH 8.5) to flow at the coated chip for 200 seconds. To test the bound proteins, the chip was rotated at an angle of 90°, and stabilized by allowing DPBST (PBS with 0.005% Tween 20) to flow on the chip for 30 minutes.

[2] = molecular target: T2, C-terminally active myostatin (R&D …); assay: ELISA, coating 1 ug/ml myostatin, binding 10 nM, anti-human Fc HRP
ACVR2B-Fc fusion protein [3] = molecular target: T1, ACVR2B-Fc fusion protein; assay: phage ELISA, ACVR2B coated
ACVR2B-Fc fusion protein [4] = molecular target: T1, ACVR2B-Fc fusion protein; assay: phage ELISA; OD on ACVR2B divided by OD on a-myc
[5] = molecular target: T3, anti-myc antibody coated on the ELISA plate; assay: phage ELISA, anti-myc coated
T3 construct: also called a-MYC; a-myc

ACVR2B-Fc fusion protein [6] = molecular target: T1, ACVR2B-Fc fusion protein; assay: phage ELISA, ACVR2B coated; remark: listed apart in the source
Description: (§1) Colonies obtained from a group of the polyclonal phage antibodies having high binding capacity were cultured at a temperature of 37° C. for 16 hours in a 96-deep well plate (Bioneer 90030) containing 1 ml of a medium supplemented with 2×YTCM, 2% glucose, and 5 mM MgCl₂. 100 to 200 μl of the cultured cells were taken, and diluted with 1 ml of a medium supplemented with 2×YTCM, 2% glucose, and 5 mM MgCl₂ so that the OD₆₀₀ value of the cultured cells reached 1. Thereafter, the cells were cultured at a temperature of 37° C. for 2 to 3 hours in a 96-deep well plate so that the OD₆₀₀ value reached 0.5 to 0.7. Then, the cells were infected with an […] so that an MOI value became 1:20, and then cultured at a temperature of 30° C. for 16 hours in a medium supplemented with 2×YTCMK, 5 mM MgCl₂, and 1 mM IPTG. The cultured cells were centrifuged (at 4,500 rpm and 4° C. for 15 minutes) to collect a supernatant. Then, the supernatant was thoroughly dissolved in 4% PEG 6000 and 3% NaCl, and reacted on ice for an hour. The resulting reaction mixture was centrifuged again (at 8,000 rpm and 4° C. for 20 minutes), and the pellet was dissolved in PBS, and then centrifuged (at 12,000 rpm and 4° C. for 10 minutes) to obtain a supernatant, which was transferred to a new tube and stored at 4° C. Subsequently, a 96-well immunoplate was coated with antigens at a concentration of 100 ng per well by treating the immunoplate with the antigens at 4° C. for 16 hours, and each well was then blocked with skim milk (4%) dissolved in PBS. Each well was washed with 0.2 ml of PBS-Tween 20 (0.05%), and 100 μl of the monoclonal scFv-phages obtained by the above-described method were added to each well, and then reacted at room temperature for 2 hours. Each well was again washed four times with […] of PBS-Tween 20 (0.05%), and a secondary antibody, anti-M13-HRP, was diluted at 1:2000, added to each well, and then reacted at room temperature for an hour. Each well was washed with […] of PBS-Tween 20, colorimetrically developed, and then measured for optical density at 490 nm.

Fc [7] = molecular target: T4, Fc; assay: phage ELISA, Fc coated
T4 construct: domain: Fc

Fc [8] = molecular target: T4, Fc; assay: phage ELISA, Fc coated; remark: listed apart in the source
Description: as §1

[9] = molecular target: T3, anti-myc antibody coated on the ELISA …; assay: phage ELISA, anti-myc coated; remark: listed apart in the source
Description: as §1

Row | Binder | binding result (ACVR2B-Fc fusion protein [1]) | binding result [2] | OD490 (ACVR2B-Fc fusion protein [3]) | Ratio (ACVR2B-Fc fusion protein [4]) | OD490 [5] | OD490 (ACVR2B-Fc fusion protein [6]) | OD490 (Fc [7]) | OD490 (Fc [8]) | OD490 [9]
1 | EGF3-6-Fc (DLK1 deletion mutant without the 1st and 2nd EGF-like repeat domains) (Fc fusion, also called 3M-Fc; not shown: human antibody Fc region of the pYK602-Fc vector and any SfiI-junction residues) DVRACSSAPCANNGTCVSLDDGLYECSCAPGYSGKDCQKKDGPCVINGSPCQHGGTCVDDEGRASHASCLCPPGFSGNFCEIVANSCTPNPCENDGVCTDIGGDFRCRCPAGFIDKTCSRPVTNCASSPCQNGGTCLQHTQVSYECLCKPEFTGLTCVKKRALSPQQVTRLPSGYGLAYRLTPGVHELPVQQPEHRILKVSMKELNKKTPLLTEG | binds | binds |  |  |  |  |  |  | 
2 | EGF4-6-Fc (Fc fusion, also called 4M-Fc; not shown: human antibody Fc region of the pYK602-Fc vector and any SfiI-junction residues) KDGPCVINGSPCQHGGTCVDDEGRASHASCLCPPGFSGNFCEIVANSCTPNPCENDGVCTDIGGDFRCRCPAGFIDKTCSRPVTNCASSPCQNGGTCLQHTQVSYECLCKPEFTGLTCVKKRALSPQQVTRLPSGYGLAYRLTPGVHELPVQQPEHRILKVSMKELNKKTPLLTEG | binds | binds |  |  |  |  |  |  | 
3 | EGF6-Fc (Fc fusion, also called 6M-Fc; not shown: human antibody Fc region of the pYK602-Fc vector and any SfiI-junction residues) PVTNCASSPCQNGGTCLQHTQVSYECLCKPEFTGLTCVKKRALSPQQVTRLPSGYGLAYRLTPGVHELPVQQPEHRILKVSMKELNKKTPLLTEG | no binding | binds |  |  |  |  |  |  | 
4 | ACVR2B A06 (monoclonal scFv-phage) (scFv, V domains shown, also called A6) VH: VQLVQSGGGLVQPGRSLRLSCTASGFTFGDYAMSWVRQAPGKGLEWVGFIRSKRYDGTAEYAASVKGRFTISRDDSKNSLYLQMNSLRAEDTAVYYCARGHYAMDVWGQGTTVTVSS VL: DIQMTQSPSSLSASVGDRVTITCRASRSISNYLNWYQQKPGKAPKLLIYAASSLQSGVPSRFSGSGSGTDFTLTISSLQPEDFATYYCQQSYDTPFTFGLGNQLEIK |  |  | 2.96 OD | 4.21 | 0.703 OD | 2.96 OD | 0.046 OD | 0.046 OD | 0.704 OD
5 | ACVR2B A09 (monoclonal scFv-phage) (scFv, V domains shown, also called A9) VH: VQLVESGGGLVQPGRSLRLSCAASGFTFDSYWMSWVRQAPGKGLEWVANIKYDGSEKHYMDSVKGRFTISRDNAKNSVYLQMNSLRAEDTAVYYCAKGAWLDYWGQGTQVTVSS VL: IQMTQSPSAMSASVGDRVTITCRASQGISNYLAWFQQKPGKVPKRLIYAASSLQSGVPSRFSGSGSGTGFTLTITSLQPEDFATYYCLQHKSYPYTFGQGTKLEIK |  |  | 2.18 OD | 1.86 | 1.17 OD | 2.18 OD | 0.048 OD | 0.0482 OD | 1.17 OD
6 | ACVR2B B08 (monoclonal scFv-phage) (scFv, V domains shown, also called B8) VH: VQLVQSGGGLVHPGQSLRLSCTGSGFPFGDYSMTWVRQAPGKGLEWVGLVRSKAYGGTTEYAASVKGRFIMSRDDSRSIAYLQMNSLRAEDTAVYYCARGHYGMDVWGQGTTVTVSS VL: DIQMTQSPSSVSASVGDRVTITCRASQGISNWLAWYQQKPGKAPKLLIYAASSLQSGVPSRFSGSGSGTDFTLTISSLQPEDFATYYCQQAKSYPYTFGQGTKVEIK |  |  | 2.64 OD | 2.28 | 1.16 OD | 2.64 OD | 0.045 OD | 0.0455 OD | 1.16 OD
